The nanobody polyreactivity screen of Harvey et al. (2022)

Assay: yeast display, Sf9 membrane polyspecificity reagent, FACS + sequencing; frameworks hold sequencing errors
Summary of the method: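 A synthetic nanobody library was expressed on Saccharomyces cerevisiae BJ5465 by galactose induction for 36–48 hours. The library was stained for 1 hour at 4 °C with 10% biotinylated, detergent-solubilized Sf9 membrane reagent and enriched with streptavidin microbeads before FACS. Low and high (top ~1%) gates were set on anti-HA fluorescence for expression and streptavidin fluorescence for reagent binding, and each polyreactivity label reflects the gate of origin.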

Sequence | polyreactivity (PSR sort gate)
QVQLVESGGGLVQAGGSLRLSCAASGSIFGENAMGWYRQAPGKERELVASITESGVTTYYADSVKGRFTISRDNAKNTVYLQMNSLKPEDTAVYYFWGQGTQVTVSS | low polyreactivity
QDQLVESGGGLVQAGGSLRLSCAASGSIFADYAMGWYRQAPGKERELVAVISRRGGTTYYADSVKGRFTISRDNAKNTVYLQMNSLKPEDTAVYYCAARRSFNEYDSWGHGTQVTVSS | high polyreactivity
QVQLVESGGGLVQAGGSLRLSCAASGRTLRYYAMGRYIQAPGKERELVAIITSTGSTYYADSVKGRFTISRDNAKNTVYLQMNSLKPEDTAVYYCNRVISVSLDYLGENYWGQGTQVTVSS | high polyreactivity
QVQHVESGGGLVQAGGSLRLSCAASGFIFDNYAMGWYRQSPGKERELVAAISRSGGSTYYADSVKGRFTISRDNAKTTVYLQMNSLKPEDTAVYYCATSGPRGWSLHDYWGQGTQVTVSS | high polyreactivity
QVHLVESGGGLVQAGGSLRLSCAASGSTLSFYARGWYRQAPGKERELVAAISSSGGSTYYADSVKGRFTISRDNAKNTVYLQMNSLKPEDTAVYYCNAVRRNYGYDYWGQGTQVTVSS | high polyreactivity
QVQLVESGGGIVQAGGSLRLSCAASGSTFRGYAMGWYRQAPGKERELVAAITYISDSTYYADSVKGRFTISRDNAKNTVYLQMNCLKPVDTAVYYCNAYYDGDWRYTSQETGDHWGQGTQVTVSS | low polyreactivity
QVQLVESGGGLVQAGGSLRLSCAASGRIFPGYAMGWYRQAPGKQRELVAGISNDASTNYADSVKGRFTISRDNAKNTVYLQMNSLKPEDTAVFYCAAEISYLSVPRYDYWGQGTQVTVSS | low polyreactivity
QVQLVESGGGLVQAGGSLRLSCAASGSTFGFYAMGWYRQAPGKERELVAAISGRGGSTYYADSVKGRFTISRDNAKNTVYLQMNSLKPEDTAVYYCAAKYYGEMYYWGQGTQVTVSS | low polyreactivity
QVQLVESGGGLVQAGGSLRLSCADSGRNYIGNAMGWYIHAPGKEPELVAAISSSGGNTYYADSVKGRFTISRDNAKNTVYLQMTSLNPEDNAVYYCAVEVRTLVTYGRSEYYWGQGTKVTVSS | high polyreactivity
QVQLVESGGGLVQAGGSLRLSCAASGSIFSRNAMAWYRQAPGKERELVAAISGSGGSTYYADSVKGRFTISRDNAKNTVYLQMNSLKPEDTAVYYCNKFGYHREYDYWGQGTQVTVSS | low polyreactivity
QVQLVESGGGLVQAGGSLRLSCAASGITFDYYGMGWYIQAPGKERELVASITSGGSTNYADSVKGRFTISRDNPKNTVYLQMNSLKPEDTAVYYCNAEFWEVSPDPRDYDYWGQGTQVTVSS | low polyreactivity
QVQLVETGGGLVQAGGSLRLSCAASGFTFTSYAMGWYRQAPGKERELVARITSSTGSTYYADSVKGRFTISRDNAKNTVDLQMNSMKPEDTAVYYCNARRQRNKSYNYWGQGTEVTVSS | high polyreactivity
QVQLVESGGGLVQAGGSLRLSCAASGSIFYSYAMGWYRQAPGKERELVADITWYGGRTYYADSVKGRFTISRDNAKNTVYLQMNSLKPEDTAVYYCAADVYLYDYWGQGTQVTISS | high polyreactivity
QVQLVESGGGLVQAGGSLRLSCAASGGIFVSYAMGWYRQAPGKERELVARINAVDGTNYADSVKGRFTISRDNAKYTVYLQMKSVKPEDTAVYYCAVRSPVLASDYGYYFLRDYWGQGTQVTVSS | low polyreactivity
QVQLVESGGGLVQAGGRLRLSCAASGRTMGWYRQAPRKERELVAAITSGGGSTYYADSVKWRFTISRDNAKNTVYLQMNSLKPEDTAVYYCARTTIAQLHSIVAPHDYWGQGTQVNVSS | low polyreactivity
PVQLVESGGGLVQAGASLRLSCAASGNTFIENAKGSYRQAPGKERELVADIDTGGSTYYADSVKGRFTISRDNAKNTVYLQMNRLKPEDTADYYCTAVGLYLYRYKFGYLGKIGPGYDYWGQGTQVTVSS | low polyreactivity
QVQLVESGGGLDQAGGSLRLSCAASGNIVYNGMGWYRQAPGKERELVAAIRGSGGRTYADSVKGRFTISRDNAKNTVYLQMNSLKPEDTAVYYCATRRWYAYGVYYWGQGTQVTVSS | high polyreactivity
QVQLVESGGGLVQAGGSLRLSCAASGTFSYYAMGWYIQAPGKERELVATIRSGGRTYYADSVKGRFTISRDNAKNTVYLQMNSLKPEDTAVYYCAKTGFLGLRQYGYWGQGTRVTVSS | high polyreactivity
QVQLVESGGGLVQAGGSLRLSCAASGRIFTGYAMGWSRQAPGKERELVASITWRGGSTSYADSVKGRFTISRDNAKNTVYLQMNRLKPEDTAVYYCAAQKWYYPYYWGQGTQVTVSS | high polyreactivity
QVQLVESGGGLVQAGGSLRLSCAASGRIITRNAMGWYRPAPGKERELVAAISSGGSTSYADSVKGRFTISRDNAKNTVYLQLNSVKPEDTAVYYCATKWYWWYDGYYYWGQGTQVTVSS | low polyreactivity
QVQLVESGGGLVQAGGSLRLSCAASGRIFEVYAMGWYRQAPGKERELVARISDGGGSTYYADSVKGRFTISRDNAKNTVYLQMNSLKPEDTAVYYCAAGGDLRLDRRFAFVSRGDYWGQGTQVTVSS | low polyreactivity
QVQLVESGGGLVQAGGSLRLSCAASVIIFNRYAMGRYRQAPGKERELVAAISGTGASTYYADSVKGRFTISRDNAKNTVYLQMNSLKPEDTAVYYCNARKRYKSGYWGQGTQVTVSS | high polyreactivity

Sequence | polyreactivity (PSR sort gate)
QVQLVESGGGLVQAGGSLRLSCAASGHIFFYYTMGWYSPAPGKERELVAGITIGGSTNYADSVKGRFTISRDNAKNTVYLQMNSLKPEDTAVYYCNVVKYVYIYSYWEYYYWGQGTQVNVSS | low polyreactivity
QVQLVESGGGLVQAGGSLRISCAASGSIFVYYGMGWYRQAPGKERELVAAISSGGSTHYADSVKGRFTISRDNAKNTVYLQMNSLKPEDTAVYYCAAERFFWLRSYPRYYYWGQGTQVTVSS | low polyreactivity
QVQLVESGGGLVQAGGSLRLSCAASGSTLGSNAMGWYRQAPGKERELVAAITWSGGTTYYADSVKGRFTISRDNAKNTVYLQMNSMKPEDSAVYYCNAERGSGVWWKIWGSDPDDYWGQGTQVTVSS | low polyreactivity
QVQLVESGGGLVQAGGSLRLTCADSGNILLFNAMGWYRQAPGKERELVATINQSGGRTYYADSVKGRFTISRDNAKNTVYLQMNSLKPEDTAVYYCNAERHPYYYWHTQRLDYWGQGTQVTVSS | low polyreactivity
QVQLVESGGGLVQAGGSLRLTCAASGSTFGDNAMGWYRQAPGKEREFVATISWDTGTTYYADSVKGRFTISRDNAKNTVYLHMNSLKQEDTAVYYCNVQSYAEFGYWGQGTQVTVSS | low polyreactivity
QVQLVESGGGLVQAGGSLRLSCAASGRIFGDNAMGWYRQAPGKERELVATISRGGTTNYADSVKGRFTISRDNAKNTVYLQMNSLKPEDTAVYYCNARSGGHGYSRYQTYLRYDYWGQGTQVTVSS | low polyreactivity
QVQLVESGGGLVQAGGSLRLSCAASGSIFYSNVMGWYRQAPGKESELVAAITRGGGTNYADSVKGRFTISRDNAKNTVYLQMNSLKPEDTAVYYCNRDPQKYRWIPRFDYWGQGTQVTVSS | low polyreactivity
QVKLVESGGGLVQAGGSLRLSFAASGFTCNANAMGWYRQAPGQERELVAAISLSGGRTYYADSVKGRFTISRDNAKNTVYLQMNSLKAEDTAVYYCAASPDGSFRRFSRVVSGDYWGQGTQVTVSS | high polyreactivity
QVQLVESGGGLVQAGGSLRLSCAASGFTFQYYAMGWYRQAPGKERELVAAISWSGGRTYYADSVKGRFTISRDIAKNTVYLQLNSLKPEDNAVYYCAASYIVYPARYEDEGDYWGQGTQVTVSS | high polyreactivity
QVQLVESGGGLVQAGGSLRLSCAASGNTFGIYAMGWYRQAPGKERELVAAISSGTSTNYADSVKGRFTISRDNAKNTVYLQMNSMKPEDTAVYYCNADDQYQDVREDYWGQGTQVTVSS | low polyreactivity
QVQLVESGGGLVQAGGSLRLSSAASGRILPVNTMGWYRQAPGKERELVAVITRSGGRTYYADSVKGRFTISRDNAKNTVYLQMNSLKPEDTAVYYCAADVGFRWYRYTAGPLEYDYWGQGTQVTVSS | high polyreactivity
QVQLEESGGGLVQAGGSLRLSCAASGRIFYLNAIGWYRQAPRKATELVAAINTSGDSTYYADSVKGRFTISRDNAKNTVYLQMNSLKPEDTAVYYCAAFGIGPDQFIYDYWGQGTKVTVSS | low polyreactivity
QVQLVESGGGLVQAGGSLRLSCAASRYIFDPNAMGWYRQAPGKERELVAAISGSGTSTYYADSVKGRFTISRDNAKNTVYLQMNSLKPEDTAVYYCAAAHDAGPVRYYYWGQGTQVSVSS | low polyreactivity
QVQLVESGGGLVQAGGSLRLSCAASGSTFPYYVMGWYRQAPGKERELVAAISKSGGSTYYADSVKGRFTISRDNEKNTVYLQMNSLKPEDTAVYYCAKSYRSSRRYNYWGQDTQVTVSS | high polyreactivity
QVKLVESGGGLVQAGGSLRLSCAASGFTFTQYGLGWNRQAPGKEREFVATIRFSGDNTYYADSVKGRFTISRDNAKNTVYLQMNSLKPEDTAVYYCNADNRAFFVYPVSKRYDSWGQGTQVTVSS | low polyreactivity
QVQLVESGGGLVQAGGSLRLSCAASGSIFYRNAMGWYRQAPGKERELVASISSSAGRTYYADSVKGRFTISRDNAKNTVYLQMNSLKPEDTAVYYCAVTSYRQRGAFDYWGQGTQVTVSS | high polyreactivity
QVQLVESGGGLVQAGGSLSLRCAASGGTFAPYAMGWYRQAPGTERELDAAISWSGGSTYYADSVKGLFTISRDNAKISVYLQMNSLKPEDTAVYYCAGRLTRGIYSTYYYWGQGTQGTVSS | high polyreactivity
QVHLVESGGGLVQAGCSLRLSCAASGSTSASYAMGCDRQAPGKERELVAAISGRGTTTYYADSVKGRFTISRDNAKNTVYLQMNSLKPEDTAVYYCAVYRRGGVEAFLYWGQGTQVTVSS | high polyreactivity
QVQLVESGGGLVQAGGSLRLSCAASGSTFKGYAMGCYRQAPGKERELVAAISWSAGSTYYADSVKGRFTISRDNAKNTVYLQMNSLKPEDTAVYYCAKASVALRYYSYSLGRDYWGQGTQVTVSS | low polyreactivity
QVQLVESGGRLVQAGGSLRLSCAASGYIVTIYAMGWYRQAPGKEREFVAAITWSGGRTYYADSVKGRFTISRDNPKNTVYIQRNSLTPEDTAVYYCDARVANYLSQMYYWGQGTQVTVSS | high polyreactivity
QVQLVESGGGLVQAGGSLRLSCAASGSTFWKYAMGWYRQAPGKERELVASIRSGGSTYYADSVKGRFTISRDNAKNNVYLQMNSLKPEDTAVYYCNAMSRTVSHEADDYWGQGTQVTVSS | high polyreactivity
